# In article doi:10.1101/2023.06.15.545061 (2023):
# Experiments:
# [1] = target: T1, biotinylated 10-mer C-terminal PBM peptide of DGKζ (human, UniProt Q13574, biotin attached to the N-terminus via a trioxatridecan-succinamic acid (ttds) linker); assay: nHU-MS, printed as pKapp 5.71
# [2] = target: T1, biotinylated 10-mer C-terminal PBM …; assay: nHU-MS, printed as pKapp 5.01
# [3] = target: T1, biotinylated 10-mer C-terminal PBM …; assay: nHU-MS, printed as pKapp 4.96
# [4] = target: T1, biotinylated 10-mer C-terminal PBM …; assay: nHU-MS, printed as pKapp 4.98
# T1 sequence (Q13574 whole entry, looked up, tested part not stated): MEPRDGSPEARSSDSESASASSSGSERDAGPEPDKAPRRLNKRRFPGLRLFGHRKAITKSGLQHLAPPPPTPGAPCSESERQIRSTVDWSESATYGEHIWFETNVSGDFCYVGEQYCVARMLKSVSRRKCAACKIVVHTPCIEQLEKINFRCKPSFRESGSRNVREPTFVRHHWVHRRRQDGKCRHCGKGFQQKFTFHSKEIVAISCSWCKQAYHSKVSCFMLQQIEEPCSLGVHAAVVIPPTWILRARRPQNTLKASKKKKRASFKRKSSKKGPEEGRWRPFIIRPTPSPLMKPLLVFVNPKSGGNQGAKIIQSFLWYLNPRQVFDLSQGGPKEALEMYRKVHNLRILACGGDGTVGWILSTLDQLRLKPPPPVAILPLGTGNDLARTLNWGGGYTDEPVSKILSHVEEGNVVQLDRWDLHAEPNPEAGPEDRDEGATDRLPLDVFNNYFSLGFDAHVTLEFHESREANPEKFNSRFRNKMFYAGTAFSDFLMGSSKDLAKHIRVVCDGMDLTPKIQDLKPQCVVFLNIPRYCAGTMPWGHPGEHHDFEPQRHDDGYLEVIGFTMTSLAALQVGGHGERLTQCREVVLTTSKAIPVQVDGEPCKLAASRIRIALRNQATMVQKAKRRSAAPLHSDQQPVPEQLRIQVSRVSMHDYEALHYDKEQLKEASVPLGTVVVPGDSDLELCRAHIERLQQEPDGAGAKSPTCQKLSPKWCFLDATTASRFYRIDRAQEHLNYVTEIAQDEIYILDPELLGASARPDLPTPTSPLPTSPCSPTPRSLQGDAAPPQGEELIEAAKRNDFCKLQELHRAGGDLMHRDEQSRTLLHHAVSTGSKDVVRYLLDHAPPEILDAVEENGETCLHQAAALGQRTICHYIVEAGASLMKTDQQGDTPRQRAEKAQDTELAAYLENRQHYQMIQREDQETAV
binder,measurement,setting,value
MAGI3 (natural protein) MSKTLKKKKHWLSKVQECAVSWAGPPGDFGAEIRGGAERGEFPYLGRLREEPGGGTCCVVSGKAPSPGDVLLEVNGTPVSGLTNRDTLAVIRHFREPIRLKTVKPGKVINKDLRHYLSLQFQKGSIDHKLQQVIRDNLYLRTIPCTTRAPRDGEVPGVDYNFISVEQFKALEESGALLESGTYDGNFYGTPKPPAEPSPFQPDPVDQVLFDNEFDAESQRKRTTSVSKMERMDSSLPEEEEDEDKEAINGSGNAENRERHSESSDWMKTVPSYNQTNSSMDFRNYMMRDETLEPLPKNWEMAYTDTGMIYFIDHNTKTTTWLDPRLCKKAKAPEDCEDGELPYGWEKIEDPQYGTYYVDHLNQKTQFENPVEEAKRKKQLGQVEIGSSKPDMEKSHFTRDPSQLKGVLVRASLKKSTMGFGFTIIGGDRPDEFLQVKNVLKDGPAAQDGKIAPGDVIVDINGNCVLGHTHADVVQMFQLVPVNQYVNLTLCRGYPLPDDSEDPVVDIVAATPVINGQSLTKGETCMNPQDFKPGAMVLEQNGKSGHTLTGDGLNGPSDASEQRVSMASSGSSQPELVTIPLIKGPKGFGFAIADSPTGQKVKMILDSQWCQGLQKGDIIKEIYHQNVQNLTHLQVVEVLKQFPVGADVPLLILRGGPPSPTKTAKMKTDKKENAGSLEAINEPIPQPMPFPPSIIRSGSPKLDPSEVYLKSKTLYEDKPPNTKDLDVFLRKQESGFGFRVLGGDGPDQSIYIGAIIPLGAAEKDGRLRAADELMCIDGIPVKGKSHKQVLDLMTTAARNGHVLLTVRRKIFYGEKQPEDDSSQAFISTQNGSPRLNRAEVPARPAPQEPYDVVLQRKENEGFGFVILTSKNKPPPGVIPHKIGRVIEGSPADRCGKLKVGDHISAVNGQSIVELSHDNIVQLIKDAGVTVTLTVIAEEEHHGPPSGTNSARQSPALQHRPMGQSQANHIPGDRSALEGEIGKDVSTSYRHSWSDHKHLAQPDTAVISVVGSRHNQNLGCYPVELERGPRGFGFSLRGGKEYNMGLFILRLAEDGPAIKDGRIHVGDQIVEINGEPTQGITHTRAIELIQAGGNKVLLLLRPGTGLIPDHGDWDINNPSSSNVIYDEQSPLPPSSHFASIFEESHVPVIEESLRVQICEKAEELKDIVPEKKSTLNENQPEIKHQSLLQKNVSKRDPPSSHGHSNKKNLLKVENGVTRRGRSVSPKKPASQHSEEHLDKIPSPLKNNPKRRPRDQSLSPSKGENKSCQVSTRAGSGQDQCRKSRGRSASPKKQQKIEGSKAPSNAEAKLLEGKSRRIAGYTGSNAEQIPDGKEKSDVIRKDAKQNQLEKSRTRSPEKKIKRMVEKSLPSKMTNKTTSKEVSENEKGKKVTTGETSSSNDKIGENVQLSEKRLKQEPEEKVVSNKTEDHKGKELEAADKNKETGRFKPESSSPVKKTLITPGPWKVPSGNKVTGTIGMAEKRQ,Kd,[1],1.95 µM
LIN7C (natural protein) MAALGEPVRLERDICRAIELLEKLQRSGEVPPQKLQALQRVLQSEFCNAVREVYEHVYETVDISSSPEVRANATAKATVAAFAASEGHSHPRVVELPKTEEGLGFNIMGGKEQNSPIYISRIIPGGIADRHGGLKRGDQLLSVNGVSVEGEHHEKAVELLKAAQGKVKLVVRYTPKVLEEMESRFEKMRSAKRRQQT,Kd,[2],9.77 µM
SYNJ2BP (natural protein) MNGRVDYLVTEEEINLTRGPSGLGFNIVGGTDQQYVSNDSGIYVSRIKENGAAALDGRLQEGDKILSVNGQDLKNLLHQDAVDLFRNAGYAVSLRVQHRLQVQNGPIGHRGEGDPSGIPIFMVLVPVFALTMVAAWAFMRYRQQL,Kd,[3],11 µM
CASK (natural protein) MADDDVLFEDVYELCEVIGKGPFSVVRRCINRETGQQFAVKIVDVAKFTSSPGLSTEDLKREASICHMLKHPHIVELLETYSSDGMLYMVFEFMDGADLCFEIVKRADAGFVYSEAVASHYMRQILEALRYCHDNNIIHRDVKPHCVLLASKENSAPVKLGGFGVAIQLGESGLVAGGRVGTPHFMAPEVVKREPYGKPVDVWGCGVILFILLSGCLPFYGTKERLFEGIIKGKYKMNPRQWSHISESAKDLVRRMLMLDPAERITVYEALNHPWLKERDRYAYKIHLPETVEQLRKFNARRKLKGAVLAAVSSHKFNSFYGDPPEELPDFSEDPTSSGLLAAERAVSQVLDSLEEIHALTDCSEKDLDFLHSVFQDQHLHTLLDLYDKINTKSSPQIRNPPSDAVQRAKEVLEEISCYPENNDAKELKRILTQPHFMALLQTHDVVAHEVYSDEALRVTPPPTSPYLNGDSPESANGDMDMENVTRVRLVQFQKNTDEPMGITLKMNELNHCIVARIMHGGMIHRQGTLHVGDEIREINGISVANQTVEQLQKMLREMRGSITFKIVPSYRTQSSSCERDSPSTSRQSPANGHSSTNNSVSDLPSTTQPKGRQIYVRAQFEYDPAKDDLIPCKEAGIRFRVGDIIQIISKDDHNWWQGKLENSKNGTAGLIPSPELQEWRVACIAMEKTKQEQQASCTWFGKKKKQYKDKYLAKHNAVFDQLDLVTYEEVVKLPAFKRKTLVLLGAHGVGRRHIKNTLITKHPDRFAYPIPHTTRPPKKDEENGKNYYFVSHDQMMQDISNNEYLEYGSHEDAMYGTKLETIRKIHEQGLIAILDVEPQALKVLRTAEFAPFVVFIAAPTITPGLNEDESLQRLQKESDILQRTYAHYFDLTIINNEIDETIRHLEEAVELVCTAPQWVPVSWVY,Kd,[4],10.5 µM
